What all share (experiment): Selectivity ELISA of humanized antibodies for human Eph receptor
Common to all, as to assay type: binding

In experiment [1] the target is T1, human EphA1 (Homo sapiens, UniProt P21709).
T1 construct: a protein of the extracellular region of each human Eph receptor fused with the SEAP protein and the His tag; made in house; host or cells: Expi293F cells (culture supernatant)
T1 sequence (P21709 26-547 limits assumed): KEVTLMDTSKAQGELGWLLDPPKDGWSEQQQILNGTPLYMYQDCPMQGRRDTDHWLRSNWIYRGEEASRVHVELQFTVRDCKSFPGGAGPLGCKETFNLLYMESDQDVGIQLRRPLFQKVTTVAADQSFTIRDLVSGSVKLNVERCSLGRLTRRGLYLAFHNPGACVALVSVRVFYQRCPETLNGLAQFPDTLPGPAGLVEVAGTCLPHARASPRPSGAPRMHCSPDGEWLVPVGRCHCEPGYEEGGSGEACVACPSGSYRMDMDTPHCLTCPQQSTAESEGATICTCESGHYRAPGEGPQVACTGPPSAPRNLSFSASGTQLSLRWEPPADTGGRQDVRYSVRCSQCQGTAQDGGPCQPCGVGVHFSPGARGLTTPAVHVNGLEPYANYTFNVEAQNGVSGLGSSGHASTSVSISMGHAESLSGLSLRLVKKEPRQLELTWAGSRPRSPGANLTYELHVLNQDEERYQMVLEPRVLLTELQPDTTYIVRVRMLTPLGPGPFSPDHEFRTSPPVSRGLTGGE
The following applies: coated protein 1 nM. Summed up:
(§1)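 Read-out is A450 after TMB development stopped with 1N H2SO4. Plates bore anti-His-captured human Eph extracellular region-SEAP-His proteins at 1 nM final, made in Expi293F cells. Humanized antibody binding ran 1 h at room temperature before HRP-labeled anti-IgG detection.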

Experiment [2] concerns the target T2, human EphA4 (Homo sapiens, UniProt P54764).
T2 construct: made in house; not restated for the human SEAP-His protein
As to conditions: coated protein 1 nM; reference set to 100%. A digest of the protocol:
as §1

Experiment [3] has as its target T3, human EphB1 (Homo sapiens, UniProt P54762).
T3 construct: a protein of the extracellular region of each human Eph receptor fused with the SEAP protein and the His tag; made in house; host or cells: Expi293F cells (culture supernatant)
T3 sequence (P54762 18-540 limits assumed): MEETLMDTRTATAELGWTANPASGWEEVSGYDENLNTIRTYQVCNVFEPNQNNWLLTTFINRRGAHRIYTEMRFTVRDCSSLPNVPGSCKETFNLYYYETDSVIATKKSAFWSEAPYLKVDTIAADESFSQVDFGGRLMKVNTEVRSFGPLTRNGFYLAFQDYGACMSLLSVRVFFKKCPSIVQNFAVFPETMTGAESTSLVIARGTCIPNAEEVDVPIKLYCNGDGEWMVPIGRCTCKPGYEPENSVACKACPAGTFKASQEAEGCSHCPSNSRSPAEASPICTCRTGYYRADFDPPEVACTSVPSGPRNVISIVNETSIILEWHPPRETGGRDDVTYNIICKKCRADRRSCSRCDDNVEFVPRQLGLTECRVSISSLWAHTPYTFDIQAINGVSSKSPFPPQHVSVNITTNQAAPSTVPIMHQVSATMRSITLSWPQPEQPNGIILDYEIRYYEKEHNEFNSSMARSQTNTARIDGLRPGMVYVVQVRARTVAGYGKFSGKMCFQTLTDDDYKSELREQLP
The following applies: coated protein 1 nM. A digest of the protocol:
as §1

The target of experiment [4] is T4, human EphB2 (Homo sapiens, UniProt P29323).
T4 construct: a protein of the extracellular region of each human Eph receptor fused with the SEAP protein and the His tag; made in house; host or cells: Expi293F cells
T4 sequence (P29323 19-543 limits assumed): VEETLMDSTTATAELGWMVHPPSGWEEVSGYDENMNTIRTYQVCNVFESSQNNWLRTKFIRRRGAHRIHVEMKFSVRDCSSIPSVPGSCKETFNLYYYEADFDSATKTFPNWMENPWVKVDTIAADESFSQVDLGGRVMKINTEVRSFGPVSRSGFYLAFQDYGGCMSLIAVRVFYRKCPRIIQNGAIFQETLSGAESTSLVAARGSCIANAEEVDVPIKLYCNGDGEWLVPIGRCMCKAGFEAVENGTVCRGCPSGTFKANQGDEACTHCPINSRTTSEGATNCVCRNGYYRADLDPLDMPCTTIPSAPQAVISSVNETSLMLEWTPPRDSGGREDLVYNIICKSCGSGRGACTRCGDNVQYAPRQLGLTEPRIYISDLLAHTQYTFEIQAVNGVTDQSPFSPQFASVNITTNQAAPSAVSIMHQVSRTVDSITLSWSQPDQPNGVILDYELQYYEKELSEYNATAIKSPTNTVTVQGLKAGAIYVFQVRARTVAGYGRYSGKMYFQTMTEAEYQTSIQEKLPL
The following applies: coated protein 1 nM. Summed up:
as §1

T2 sequence (P54764 20-547): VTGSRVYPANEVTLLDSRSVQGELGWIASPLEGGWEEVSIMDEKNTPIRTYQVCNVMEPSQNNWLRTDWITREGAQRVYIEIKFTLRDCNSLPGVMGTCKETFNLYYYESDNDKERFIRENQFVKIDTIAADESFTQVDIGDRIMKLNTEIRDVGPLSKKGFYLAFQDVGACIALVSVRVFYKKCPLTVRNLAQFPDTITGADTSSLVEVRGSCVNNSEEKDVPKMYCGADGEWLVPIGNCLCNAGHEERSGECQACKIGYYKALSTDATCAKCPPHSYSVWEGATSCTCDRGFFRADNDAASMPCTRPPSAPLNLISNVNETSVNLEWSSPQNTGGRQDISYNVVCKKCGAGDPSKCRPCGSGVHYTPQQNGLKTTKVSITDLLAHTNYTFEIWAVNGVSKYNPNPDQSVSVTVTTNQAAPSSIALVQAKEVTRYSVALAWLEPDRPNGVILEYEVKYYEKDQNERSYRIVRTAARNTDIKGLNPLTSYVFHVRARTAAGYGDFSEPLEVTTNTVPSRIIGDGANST

B1: 94 (antibody, V domains shown)
VL: EIVMTQSPATLSVSPGERATLSCRASENIYRNLAWYQQKPGQSPRLLIYAATNLADGIPARFSGSGSGTEYTLTISSLQSEDFAVYYCQHFWGTPWTFGQGTKVEIK
VH: QVQLVQSGSELKKPGASVKVSCKASGYTFTDYSMHWVRQAPGQGLKWMGWINTETGEPTYAQGFTGRFVFSLDTSVSTAYLQISSLKAEDTAVYYCARIPLYYYGSRYWYFDVWGQGTTVTVSS
modifications: constant regions without entry; synthetic humanized antibody light chain variable region sequence; synthetic humanized antibody heavy chain variable region sequence
Regarding B1, in experiment [1], the “hEphA1-SEAP-: absorbance at 450 nm, percentage with respect to hEphA4-SEAP-His as 100%” value is reported as 6.5%. Besides, the “hEphA4-SEAP-: absorbance at 450 nm, percentage with respect to hEphA4-SEAP-His as 100%” value in experiment [2] was determined as 100%. Also, in experiment [3], the “hEphB1-SEAP-: absorbance at 450 nm, percentage with respect to hEphA4-SEAP-His as 100%” value was determined as 6.7%. Further, the “hEphB2-SEAP-: absorbance at 450 nm, percentage with respect to hEphA4-SEAP-His as 100%” value in experiment [4] is reported as 7.0%.

B2: 139 (antibody)
VH: QVQLVQSGSELKKPGASVKVSCKASGYTFTDYSMHWVRQAPGQGLEWMGWINTETGEPTYAQGFTGRFVFSLDTSVSTAYLQISSLKAEDTAVYYCARIPLYYYGSRYWYFDVWGQGTTVTVSS
VL: DIQMTQSPSSLSASVGDRVTITCRASENIYRNLAWYQQKPGKAPKLLVYAATNLADGVPSRFSGSGSGTDYTLTISSLQPEDFATYYCQHFWGTPWTFGQGTKVEIK
chain: ASTKGPSVFPLAPSSRSTSESTAALGCLVKDYFPEPVTVSWNSGALTSGVHTFPAVLQSSGLYSLSSVVTVPSSNFGTQTYTCNVDHKPSNTKVDKTVERKSCVECPPCPAPPAAAPSVFLFPPKPKDTLMISRTPEVTCVVVDVSHEDPEVQFNWYVDGVEVHNAKTKPREEQFNSTFRVVSVLTVVHQDWLNGKEYKCKVSNKGLPAPIEKTISKTKGQPREPQVYTLPPSREEMTKNQVSLTCLVKGFYPSDIAVEWESNGQPENNYKTTPPMLDSDGSFFLYSKLTVDKSRWQQGNVFSCSVMHEALHNHYTQKSLSLSPG
modifications: synthetic humanized antibody heavy chain variable region sequence; synthetic humanized antibody light chain variable region sequence; synthetic antibody constant region sequence
B2: in experiment [1], the “hEphA1-SEAP-: absorbance at 450 nm, percentage with respect to hEphA4-SEAP-His as 100%” value came to 5.7%. Moreover, the “hEphA4-SEAP-: absorbance at 450 nm, percentage with respect to hEphA4-SEAP-His as 100%” value in experiment [2] came out at 100%. Also, the “hEphB1-SEAP-: absorbance at 450 nm, percentage with respect to hEphA4-SEAP-His as 100%” value in experiment [3] is reported as 5.5%. In experiment [4], the “hEphB2-SEAP-: absorbance at 450 nm, percentage with respect to hEphA4-SEAP-His as 100%” value is given as 5.7%.

B3: 95 (antibody, V domains shown)
VL: EIVMTQSPATLSVSPGERATLSCRASENIYRNLAWYQQKPGQSPRLLIYAATNLADGIPARFSGSGSGTEYTLTISSLQSEDFAVYYCQHFWGTPWTFGQGTKVEIK
VH: QVQLVQSGSELKKPGASVKVSCKASGYTFTDYSMHWVRQAPGQGLEWMGWINTETGEPTYADDFKGRFVFSLDTSVSTAYLQISSLKAEDTAVYYCARIPLYYYGSRYWYFDVWGQGTTVTVSS
modifications: constant regions without entry; synthetic humanized antibody light chain variable region sequence; synthetic humanized antibody heavy chain variable region sequence
Regarding B3, the “hEphA1-SEAP-: absorbance at 450 nm, percentage with respect to hEphA4-SEAP-His as 100%” value in experiment [1] amounted to 4.5%. For the same molecule, in experiment [2], the “hEphA4-SEAP-: absorbance at 450 nm, percentage with respect to hEphA4-SEAP-His as 100%” value was found to be 100%. In addition, in experiment [3], the “hEphB1-SEAP-: absorbance at 450 nm, percentage with respect to hEphA4-SEAP-His as 100%” value is given as 4.6%. For the same molecule, the “hEphB2-SEAP-: absorbance at 450 nm, percentage with respect to hEphA4-SEAP-His as 100%” value in experiment [4] stood at 4.7%.

B4: 71 (antibody, V domains shown)
VH: QIQLVQSGSELKKPGASVKVSCKASGYTFTDYSMHWVRQAPGQGLKWMGWINTETGEPTYAQGFTGRFVFSLDTSVSTAYLQISSLKAEDTAVYYCARIPLYYYGSRYWYFDVWGQGTTVTVSS
VL: EIVMTQSPATLSVSPGERATLSCRASENIYRNLAWYQQKPGQSPRLLIYAATNLADGIPARFSGSGSGTEYTLTISSLQSEDFAVYYCQHFWGTPWTFGQGTKVEIK
modifications: synthetic humanized antibody heavy chain variable region sequence; synthetic humanized antibody light chain variable region sequence
For the molecule B4, the “hEphA1-SEAP-: absorbance at 450 nm, percentage with respect to hEphA4-SEAP-His as 100%” value in experiment [1] is 5.6%. Further, the “hEphA4-SEAP-: absorbance at 450 nm, percentage with respect to hEphA4-SEAP-His as 100%” value in experiment [2] stood at 100%. Also, the “hEphB1-SEAP-: absorbance at 450 nm, percentage with respect to hEphA4-SEAP-His as 100%” value in experiment [3] came to 5.4%. Also, the “hEphB2-SEAP-: absorbance at 450 nm, percentage with respect to hEphA4-SEAP-His as 100%” value in experiment [4] worked out at 5.5%.

B5: 96 (antibody, V domains shown)
VL: EIVMTQSPATLSVSPGERATLSCRASENIYRNLAWYQQKPGQSPRLLIYAATNLADGIPARFSGSGSGTEYTLTISSLQSEDFAVYYCQHFWGTPWTFGQGTKVEIK
VH: QVQLVQSGSELKKPGASVKVSCKASGYTFTDYSMHWVRQAPGQGLKWMGWINTETGEPTYADDFKGRFVFSLDTSVSTAYLQISSLKAEDTAVYYCARIPLYYYGSRYWYFDVWGQGTTVTVSS
modifications: constant regions without entry; synthetic humanized antibody light chain variable region sequence; synthetic humanized antibody heavy chain variable region sequence
With B5, the “hEphA1-SEAP-: absorbance at 450 nm, percentage with respect to hEphA4-SEAP-His as 100%” value in experiment [1] is given as 5.6%. For the same molecule, the “hEphA4-SEAP-: absorbance at 450 nm, percentage with respect to hEphA4-SEAP-His as 100%” value in experiment [2] was found to be 100%. In addition, the “hEphB1-SEAP-: absorbance at 450 nm, percentage with respect to hEphA4-SEAP-His as 100%” value in experiment [3] is listed as 5.6%. Besides, in experiment [4], the “hEphB2-SEAP-: absorbance at 450 nm, percentage with respect to hEphA4-SEAP-His as 100%” value was 5.5%.

B6: 73 (antibody, V domains shown)
VH: QIQLVQSGSELKKPGASVKVSCKASGYTFTDYSMHWVRQAPGQGLKWMGWINTETGEPTYADDFKGRFVFSLDTSVSTAYLQISSLKAEDTAVYYCARIPLYYYGSRYWYFDVWGQGTTVTVSS
VL: EIVMTQSPATLSVSPGERATLSCRASENIYRNLAWYQQKPGQSPRLLIYAATNLADGIPARFSGSGSGTEYTLTISSLQSEDFAVYYCQHFWGTPWTFGQGTKVEIK
modifications: synthetic humanized antibody heavy chain variable region sequence; synthetic humanized antibody light chain variable region sequence
Take B6: the “hEphA1-SEAP-: absorbance at 450 nm, percentage with respect to hEphA4-SEAP-His as 100%” value in experiment [1] worked out at 6.0%. In experiment [2], the “hEphA4-SEAP-: absorbance at 450 nm, percentage with respect to hEphA4-SEAP-His as 100%” value amounted to 100%. Further, the “hEphB1-SEAP-: absorbance at 450 nm, percentage with respect to hEphA4-SEAP-His as 100%” value in experiment [3] is 5.7%. For the same molecule, the “hEphB2-SEAP-: absorbance at 450 nm, percentage with respect to hEphA4-SEAP-His as 100%” value in experiment [4] came out at 5.6%.
